Laboratory results reported in patent publication US20230302148A1, “PHARMACEUTICAL COMPOSITION COMPRISING LONG-ACTING CONJUGATE OF TRIPLE GLUCAGON/GLP-1/GIP RECEPTOR AGONIST” (HANMI PHARM. CO., LTD., priority 2020, published 2023).
Bridges are numbered along the chain shown (N, C = ends). Where no end group is shown, it is not given here. [ ]: non-standard residue; d: D form. The star is where a group is joined. Acetyl(2-(4-imidazolyl)) = O=C(Cc1c[nH]cn1)*; Aib = CC(C)(N)C(=O)O

T1: human GIP receptor (human, UniProt P48546 22-466)
T1 sequence (looked up): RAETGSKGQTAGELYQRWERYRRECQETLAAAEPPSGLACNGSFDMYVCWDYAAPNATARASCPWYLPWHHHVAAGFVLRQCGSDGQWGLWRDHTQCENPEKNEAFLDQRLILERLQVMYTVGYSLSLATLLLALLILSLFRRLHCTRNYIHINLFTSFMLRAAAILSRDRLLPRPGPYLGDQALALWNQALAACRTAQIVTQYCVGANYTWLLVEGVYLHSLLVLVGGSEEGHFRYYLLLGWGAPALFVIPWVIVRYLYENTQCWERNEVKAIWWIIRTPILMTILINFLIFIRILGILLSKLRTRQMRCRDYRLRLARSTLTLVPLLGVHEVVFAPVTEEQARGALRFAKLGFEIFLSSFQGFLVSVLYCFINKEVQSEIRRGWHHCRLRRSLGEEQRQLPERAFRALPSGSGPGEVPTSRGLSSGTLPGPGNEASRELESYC


These binders were tested against T1, human GIP receptor (assay: cell-based or functional assay).

| Binder | In vitro activity relative to native peptide (%) vs. GIP [%] |
| --- | --- |
| [Acetyl(2-(4-imidazolyl))][Aib]QGTFTSDYSKCLDEKRAKEFVQWLLDHHPSSGQPPPS (bridge 16-20; not fully specified) [triple agonist of SEQ ID NO: 74] | 1 |
| Y[Aib]QGTFTSDYSKYLDEKAAKDFVQWLLDHHPSSGQPPPSC (bridge 16-20) [triple agonist of SEQ ID NO: 77] | 35.5 |
| {Acetyl(2-(4-imidazolyl))}-[Aib]EGTFTSDYSIAMDEIHQKDFVNWLLAQC (bridge 15-19) [triple agonist of SEQ ID NO: 83] | 0.4 |
| H[Aib]EGTFTSDYSIAMDEIHQKDFVDWLLAEKC (bridge 16-20) [triple agonist of SEQ ID NO: 80] | 0.1 |
| {Acetyl(2-(4-imidazolyl))}-[Aib]QGTFTSDYSKYLDEKRQKEFVQWLLNTC (bridge 15-19) [triple agonist of SEQ ID NO: 81] | < 0.1 |
| H[Aib]EGTFTSDYSIAMDEIHQKDFVNWLLAQKC (bridge 16-20) [triple agonist of SEQ ID NO: 79] | 1.4 |
| {Acetyl(2-(4-imidazolyl))}-[Aib]QGTFTSDYSKYLDEKRQKEFVNWLLAQC (bridge 15-19) [triple agonist of SEQ ID NO: 86] | 0.2 |
| Y[Aib]QGTFTSDYSKYLDEKRAKDFVQWLLDHHPSSGQPPPSC (bridge 16-20) [triple agonist of SEQ ID NO: 76] | 11.7 |
| {Acetyl(2-(4-imidazolyl))}-[Aib]EGTFTSDYSIAMDEIHQKDFVDWLLAEC (bridge 15-19) [triple agonist of SEQ ID NO: 84] | < 0.1 |
| Y[Aib]QGTFTSDYSKCLDEKRAKDFVQWLLDHHPSSGQPPPS (bridge 16-20) [triple agonist of SEQ ID NO: 70] | 64.4 |
| Y[Aib]QGTFTSDYSKCLDEKAAKEFVQWLLDHHPSSGQPPPS (bridge 16-20) [triple agonist of SEQ ID NO: 68] | 107 |
| Y[Aib]QGTFTSDYSKCLDERAAKEFVQWLLDHHPSSGQPPPS (bridge 16-20) [triple agonist of SEQ ID NO: 69] | 62.8 |
| Y[Aib]QGTFTSDCSKYLDERAAKDFVQWLLDHHPSSGQPPPS (bridge 16-20) [triple agonist of SEQ ID NO: 72] | 1.6 |

The binders below were run against human GLP-1 receptor (human, UniProt P43220 24-463) (assay: cell-based or functional assay).

| Binder | In vitro activity relative to native peptide (%) vs. GLP-1 [%] |
| --- | --- |
| [Acetyl(2-(4-imidazolyl))][Aib]QGTFTSDYSKCLDEKRAKEFVQWLLDHHPSSGQPPPS (bridge 16-20; not fully specified) [triple agonist of SEQ ID NO: 74] | 12.9 |
| Y[Aib]QGTFTSDYSKYLDEKAAKDFVQWLLDHHPSSGQPPPSC (bridge 16-20) [triple agonist of SEQ ID NO: 77] | 38.7 |
| {Acetyl(2-(4-imidazolyl))}-[Aib]EGTFTSDYSIAMDEIHQKDFVNWLLAQC (bridge 15-19) [triple agonist of SEQ ID NO: 83] | 47.3 |
| H[Aib]EGTFTSDYSIAMDEIHQKDFVDWLLAEKC (bridge 16-20) [triple agonist of SEQ ID NO: 80] | 8.1 |
| {Acetyl(2-(4-imidazolyl))}-[Aib]QGTFTSDYSKYLDEKRQKEFVQWLLNTC (bridge 15-19) [triple agonist of SEQ ID NO: 81] | 7.8 |
| H[Aib]EGTFTSDYSIAMDEIHQKDFVNWLLAQKC (bridge 16-20) [triple agonist of SEQ ID NO: 79] | 41.5 |
| {Acetyl(2-(4-imidazolyl))}-[Aib]QGTFTSDYSKYLDEKRQKEFVNWLLAQC (bridge 15-19) [triple agonist of SEQ ID NO: 86] | 28.4 |
| Y[Aib]QGTFTSDYSKYLDEKRAKDFVQWLLDHHPSSGQPPPSC (bridge 16-20) [triple agonist of SEQ ID NO: 76] | 10.3 |
| {Acetyl(2-(4-imidazolyl))}-[Aib]EGTFTSDYSIAMDEIHQKDFVDWLLAEC (bridge 15-19) [triple agonist of SEQ ID NO: 84] | 4.2 |
| Y[Aib]QGTFTSDYSKCLDEKRAKDFVQWLLDHHPSSGQPPPS (bridge 16-20) [triple agonist of SEQ ID NO: 70] | 15.1 |
| Y[Aib]QGTFTSDYSKCLDEKAAKEFVQWLLDHHPSSGQPPPS (bridge 16-20) [triple agonist of SEQ ID NO: 68] | 27.9 |
| Y[Aib]QGTFTSDYSKCLDERAAKEFVQWLLDHHPSSGQPPPS (bridge 16-20) [triple agonist of SEQ ID NO: 69] | 24.3 |
| Y[Aib]QGTFTSDCSKYLDERAAKDFVQWLLDHHPSSGQPPPS (bridge 16-20) [triple agonist of SEQ ID NO: 72] | 11.5 |

The binders below were run against human GCG receptor (human, UniProt P47871 26-477) (assay: cell-based or functional assay).
human GCG receptor, sequence (P47871 26-477): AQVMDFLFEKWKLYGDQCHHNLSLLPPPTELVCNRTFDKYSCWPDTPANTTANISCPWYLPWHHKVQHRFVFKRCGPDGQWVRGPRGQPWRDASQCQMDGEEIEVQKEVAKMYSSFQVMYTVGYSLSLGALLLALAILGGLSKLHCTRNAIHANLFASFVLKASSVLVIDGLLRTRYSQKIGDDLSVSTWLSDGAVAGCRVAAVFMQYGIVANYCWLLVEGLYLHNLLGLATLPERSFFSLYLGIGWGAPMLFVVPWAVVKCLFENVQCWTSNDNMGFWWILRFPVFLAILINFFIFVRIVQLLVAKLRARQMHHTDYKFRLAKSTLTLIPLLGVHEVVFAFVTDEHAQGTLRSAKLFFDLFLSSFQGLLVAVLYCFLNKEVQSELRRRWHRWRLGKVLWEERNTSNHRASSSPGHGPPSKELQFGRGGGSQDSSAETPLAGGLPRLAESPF

| Binder | In vitro activity relative to native peptide (%) vs. Glucagon [%] |
| --- | --- |
| [Acetyl(2-(4-imidazolyl))][Aib]QGTFTSDYSKCLDEKRAKEFVQWLLDHHPSSGQPPPS (bridge 16-20; not fully specified) [triple agonist of SEQ ID NO: 74] | 0.9 |
| Y[Aib]QGTFTSDYSKYLDEKAAKDFVQWLLDHHPSSGQPPPSC (bridge 16-20) [triple agonist of SEQ ID NO: 77] | 12.2 |
| {Acetyl(2-(4-imidazolyl))}-[Aib]EGTFTSDYSIAMDEIHQKDFVNWLLAQC (bridge 15-19) [triple agonist of SEQ ID NO: 83] | 1.3 |
| H[Aib]EGTFTSDYSIAMDEIHQKDFVDWLLAEKC (bridge 16-20) [triple agonist of SEQ ID NO: 80] | 0 |
| {Acetyl(2-(4-imidazolyl))}-[Aib]QGTFTSDYSKYLDEKRQKEFVQWLLNTC (bridge 15-19) [triple agonist of SEQ ID NO: 81] | 0.3 |
| H[Aib]EGTFTSDYSIAMDEIHQKDFVNWLLAQKC (bridge 16-20) [triple agonist of SEQ ID NO: 79] | 4.9 |
| {Acetyl(2-(4-imidazolyl))}-[Aib]QGTFTSDYSKYLDEKRQKEFVNWLLAQC (bridge 15-19) [triple agonist of SEQ ID NO: 86] | 0.4 |
| Y[Aib]QGTFTSDYSKYLDEKRAKDFVQWLLDHHPSSGQPPPSC (bridge 16-20) [triple agonist of SEQ ID NO: 76] | 47.6 |
| {Acetyl(2-(4-imidazolyl))}-[Aib]EGTFTSDYSIAMDEIHQKDFVDWLLAEC (bridge 15-19) [triple agonist of SEQ ID NO: 84] | < 0.1 |
| Y[Aib]QGTFTSDYSKCLDEKRAKDFVQWLLDHHPSSGQPPPS (bridge 16-20) [triple agonist of SEQ ID NO: 70] | 71.3 |
| Y[Aib]QGTFTSDYSKCLDEKAAKEFVQWLLDHHPSSGQPPPS (bridge 16-20) [triple agonist of SEQ ID NO: 68] | 8.8 |
| Y[Aib]QGTFTSDYSKCLDERAAKEFVQWLLDHHPSSGQPPPS (bridge 16-20) [triple agonist of SEQ ID NO: 69] | 9.6 |
| Y[Aib]QGTFTSDCSKYLDERAAKDFVQWLLDHHPSSGQPPPS (bridge 16-20) [triple agonist of SEQ ID NO: 72] | 1 |
